In patent US20250076311A1 (Chugai, published 2025):

Tests used:
[1] = molecular target: T1, cynomolgus monkey FcγRIIIaS extracellular domain with C-terminal His-tag (cynomolgus monkey, UniProt A3RFZ7 21-206 (rhesus entry)); assay: SPR (BIACORE); KD of SG1 / KD of variant
T1 construct: also called cyno FcgRIIIaS; cynoFcγRIIIaS; not shown: His-tag added to the C-terminus
Experimental: The kinetic analysis of interactions between these antibodies and FcγR was carried out using BIACORE® T200 or BIACORE® 4000 (GE Healthcare). HBS-EP+ (GE Healthcare) was used as the running buffer, and the measurement temperature was set to 25° C. […] After the measurement, the antibody captured on the chip was washed off by allowing reaction with 10 mM glycine-HCl, pH1.5 and 25 mM NaOH so that the chip was regenerated and used repeatedly. The sensorgrams obtained as measurement results were analyzed by the 1:1 Langmuir binding model using the BIACORE® Evaluation Software to calculate the binding rate constant ka (L/mol/s) and dissociation rate constant kd (1/s), and the dissociation constant KD (mol/L) was calculated from these values. […] Regarding such interactions, KD values were calculated using the following 1:1 binding model described in BIACORE® T100 Software Handbook BR1006-48 Edition AE.
Target sequence in this assay (A3RFZ7 21-206): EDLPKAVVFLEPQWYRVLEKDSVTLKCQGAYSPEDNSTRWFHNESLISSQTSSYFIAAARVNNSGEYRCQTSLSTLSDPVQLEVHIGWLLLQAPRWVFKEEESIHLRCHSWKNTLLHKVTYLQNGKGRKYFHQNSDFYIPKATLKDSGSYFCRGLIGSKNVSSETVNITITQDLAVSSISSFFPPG

[2] = molecular target: T2, human FcγRIIaH extracellular domain with C-terminal His-tag (human, UniProt P12318 34-217); assay: SPR (BIACORE), antibody captured, FcgR analyte
T2 construct: also called human FcgRIIaH; FcγRIIa type H; not shown: His-tag added to the C-terminus
T2 sequence: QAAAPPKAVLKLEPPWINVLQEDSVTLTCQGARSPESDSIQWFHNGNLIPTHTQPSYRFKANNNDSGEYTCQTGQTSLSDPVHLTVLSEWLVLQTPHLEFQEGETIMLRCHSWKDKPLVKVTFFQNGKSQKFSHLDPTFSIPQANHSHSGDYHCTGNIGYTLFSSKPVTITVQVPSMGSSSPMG

[3] = molecular target: T1, cynomolgus monkey FcγRIIIaS …; assay: SPR (BIACORE), antibody captured, FcgR analyte
T1 sequence (A3RFZ7 21-206): as the sequence (A3RFZ7 21-206) above

[4] = molecular target: T3, cynomolgus monkey FcγRIIa3 extracellular domain with C-terminal His-tag (cynomolgus monkey); assay: SPR (BIACORE), antibody captured, FcgR analyte
T3 construct: also called cyno FcgRIIa3; cynoFcγRIIa3; not shown: His-tag added to the C-terminus
T3 chain: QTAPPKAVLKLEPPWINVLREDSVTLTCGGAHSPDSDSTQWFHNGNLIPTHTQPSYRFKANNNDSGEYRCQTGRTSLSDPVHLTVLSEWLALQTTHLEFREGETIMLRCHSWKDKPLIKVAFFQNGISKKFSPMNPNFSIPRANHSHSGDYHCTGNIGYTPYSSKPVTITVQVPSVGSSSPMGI

[5] = molecular target: T4, human FcγRIIaR extracellular domain with C-terminal His-tag (human, UniProt P12318 34-217); assay: SPR (BIACORE), antibody captured, FcgR analyte
T4 construct: also called human FcgRIIaR; FcγRIIa type R; not shown: His-tag added to the C-terminus
T4 chain: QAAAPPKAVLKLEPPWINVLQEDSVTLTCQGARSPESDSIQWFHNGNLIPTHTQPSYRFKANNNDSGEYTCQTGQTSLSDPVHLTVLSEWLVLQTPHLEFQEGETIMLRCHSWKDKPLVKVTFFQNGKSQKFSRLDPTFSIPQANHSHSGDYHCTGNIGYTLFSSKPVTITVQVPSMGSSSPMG

[6] = molecular target: T5, cynomolgus monkey FcγRIIIaS extracellular domain with C-terminal His-tag (cynomolgus monkey, UniProt A3RFZ7 21-206 (rhesus entry)); assay: SPR Biacore, antibody captured, FcgR analyte
T5 construct: also called cyno FcgRIIIaS; cynoFcγRIIIaS; not shown: His-tag added to C-terminus

[7] = molecular target: T6, cynomolgus monkey FcγRIIa2 extracellular domain with C-terminal His-tag (cynomolgus monkey); assay: SPR Biacore, antibody captured, FcgR analyte
T6 construct: also called cyno FcgRIIa2; cynoFcγRIIa2; not shown: His-tag added to C-terminus
T6 chain: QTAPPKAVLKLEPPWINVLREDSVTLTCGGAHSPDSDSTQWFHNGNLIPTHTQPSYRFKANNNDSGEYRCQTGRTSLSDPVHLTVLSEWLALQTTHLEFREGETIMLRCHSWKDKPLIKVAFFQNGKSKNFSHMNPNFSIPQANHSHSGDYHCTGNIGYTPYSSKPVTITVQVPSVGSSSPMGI

[8] = molecular target: T7, human FcγRIIIaV extracellular domain, His-tagged (human, UniProt P08637 17-208); assay: SPR (Biacore), 25C, FcgR bound per antibody captured
T7 construct: also called human FcgRIIIaV
T7 sequence (P08637 17-208 F176V): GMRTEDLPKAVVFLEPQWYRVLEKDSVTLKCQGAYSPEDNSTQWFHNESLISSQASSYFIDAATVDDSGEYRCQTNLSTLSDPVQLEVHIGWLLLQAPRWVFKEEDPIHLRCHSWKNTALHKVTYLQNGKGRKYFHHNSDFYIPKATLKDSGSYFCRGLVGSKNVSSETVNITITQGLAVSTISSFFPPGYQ

[9] = molecular target: T8, human FcγRIIaH extracellular domain, His-tagged (human, UniProt P12318 34-217); assay: as above
T8 construct: also called human FcgRIIaH; FcγRIIa type H
T8 sequence: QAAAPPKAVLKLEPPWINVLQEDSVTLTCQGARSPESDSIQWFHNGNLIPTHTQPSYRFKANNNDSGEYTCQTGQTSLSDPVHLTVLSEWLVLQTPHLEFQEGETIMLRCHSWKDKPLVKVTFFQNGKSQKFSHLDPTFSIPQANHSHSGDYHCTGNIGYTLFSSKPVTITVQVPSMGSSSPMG

[10] = molecular target: T9, human FcγRIIb extracellular domain, His-tagged (human, UniProt P31994 43-217); assay: as above
T9 construct: also called human FcgRIIb
T9 sequence: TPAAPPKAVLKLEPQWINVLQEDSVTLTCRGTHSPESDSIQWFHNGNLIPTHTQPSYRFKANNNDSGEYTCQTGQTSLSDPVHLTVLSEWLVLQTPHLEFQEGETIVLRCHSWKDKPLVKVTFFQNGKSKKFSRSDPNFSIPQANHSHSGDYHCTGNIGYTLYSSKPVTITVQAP

Binder	Kd [2] [nM]	Kd [3] [µM]	Kd [4] [nM]	Binding to human FcgRs (parent B3 = 100) [8]	Binding to human FcgRs (parent B3 = 100) [9]	Binding to human FcgRs (parent B3 = 100) [10]	also measured
M103205H795-MY197/M103202L889-SK1 (antibody, human IgG1, kappa, name in EU numbering, Fc variant of MS1032LO06-SG1; positions in EU numbering) heavy: QVTLKESGPVLVKPTETLTLTCTVSGIDLSHDDISWVRQAPGKGLEWVGIISYAGSTYYASWAKGRLTISKDTSKNQVVLTMTNMDPVDTATYYCARGVPAYSHGGDLWGQGTLVTVSSASTKGPSVFPLAPSSKSTSGGTAALGCLVKDYFPEPVTVSWNSGALTSGVHTFPAVLQSSGLYSLSSVVTVPSSSLGTQTYICNVNHKPSNTKVDKKVEPKSCDKTHTCPPCPAPELLNGPSVFLFPPKPKDTLMISRTPEVTCVVVDVSDEDPEVKFNWYVDGVEVHNAKTKPREEQYNSTYRVVSVLTVLHQDWLNGKEYKCKVSNKALPKPIEKTISKAKGQPREPQVYTLPPSREEMTKNQVSLTCLVKGFYPSDIAVEWESNGQPENNYKTTPMVLDSDGSFFLYSKLTVDKSRWQQGNVFSCSVMHEALHNHYTQKSLSLSP light: DIVMTQSPATLSLSPGERATLSCTSSQSVYHANWLSWFQQKPGQPPKLLIYWASTLAYGVPSRFSGSGSGTDFTLTISSLQPEDAATYYCAGGYGGGRYAFGQGTKVEIKRTVAAPSVFIFPPSDEQLKSGTASVVCLLNNFYPREAKVQWKVDNALQSGNSQESVTEQDSKDSTYSLSSTLTLSKADYEKHKVYACEVTHQGLSSPVTKSFNRGEC	160	2.1	1400	–	–	–	KD fold (SG1 = 1) [1]: 0.17 fold
M103205H795-MY434/M103202L889-SK1 (antibody, human IgG1, kappa, name in EU numbering, Fc variant of MS1032LO06-SG1; positions in EU numbering) heavy: QVTLKESGPVLVKPTETLTLTCTVSGIDLSHDDISWVRQAPGKGLEWVGIISYAGSTYYASWAKGRLTISKDTSKNQVVLTMTNMDPVDTATYYCARGVPAYSHGGDLWGQGTLVTVSSASTKGPSVFPLAPSSKSTSGGTAALGCLVKDYFPEPVTVSWNSGALTSGVHTFPAVLQSSGLYSLSSVVTVPSSSLGTQTYICNVNHKPSNTKVDKKVEPKSCDKTHTCPPCPAPELWNGPSVFLFPPKPKDTLMISRTPEVTCVVVDVSDEDPEVKFNWYVDGVEVHNAKTKPREEQYNSTYRVVSVLTVLHQDWLNGKEYKCKVSNKALPKPIEKTISKAKGQPREPQVYTLPPSREEMTKNQVSLTCLVKGFYPSDIAVEWESNGQPENNYKTTPPVLDSDGSFFLYSKLTVDKSRWQQGNVFSCSVMHEALHNHYTQKSLSLSP light: DIVMTQSPATLSLSPGERATLSCTSSQSVYHANWLSWFQQKPGQPPKLLIYWASTLAYGVPSRFSGSGSGTDFTLTISSLQPEDAATYYCAGGYGGGRYAFGQGTKVEIKRTVAAPSVFIFPPSDEQLKSGTASVVCLLNNFYPREAKVQWKVDNALQSGNSQESVTEQDSKDSTYSLSSTLTLSKADYEKHKVYACEVTHQGLSSPVTKSFNRGEC	1600	11	6400	–	–	–	Kd [5]: 19 nM
M103205H795-MY207/M103202L889-SK1 (antibody, human IgG1, kappa, name in EU numbering, substitutions in EU numbering, introduced into M103205H795-SG1) heavy: not shown light: DIVMTQSPATLSLSPGERATLSCTSSQSVYHANWLSWFQQKPGQPPKLLIYWASTLAYGVPSRFSGSGSGTDFTLTISSLQPEDAATYYCAGGYGGGRYAFGQGTKVEIKRTVAAPSVFIFPPSDEQLKSGTASVVCLLNNFYPREAKVQWKVDNALQSGNSQESVTEQDSKDSTYSLSSTLTLSKADYEKHKVYACEVTHQGLSSPVTKSFNRGEC	–	–	–	–	–	–	KD fold (SG1 = 1) [6]: 0.09 fold; KD fold (SG1 = 1) [7]: 3.6 fold
M103205H795-MY202/M103202L889-SK1 (antibody, human IgG1, kappa, name in EU numbering, Fc variant of MS1032LO06-SG1; positions in EU numbering) heavy: QVTLKESGPVLVKPTETLTLTCTVSGIDLSHDDISWVRQAPGKGLEWVGIISYAGSTYYASWAKGRLTISKDTSKNQVVLTMTNMDPVDTATYYCARGVPAYSHGGDLWGQGTLVTVSSASTKGPSVFPLAPSSKSTSGGTAALGCLVKDYFPEPVTVSWNSGALTSGVHTFPAVLQSSGLYSLSSVVTVPSSSLGTQTYICNVNHKPSNTKVDKKVEPKSCDKTHTCPPCPAPELLNGPVVFLFPPKPKDTLMISRTPEVTCVVVDVSDEDPEVKFNWYVDGVEVHNAKTKPREEQYNSTYRVVSVLTVLHQDWLNGKEYKCKVSNKALPKPIEKTISKAKGQPREPQVYTLPPSREEMTKNQVSLTCLVKGFYPSDIAVEWESNGQPENNYKTTPPVLDSDGSFFLYSKLTVDKSRWQQGNVFSCSVMHEALHNHYTQKSLSLSP light: DIVMTQSPATLSLSPGERATLSCTSSQSVYHANWLSWFQQKPGQPPKLLIYWASTLAYGVPSRFSGSGSGTDFTLTISSLQPEDAATYYCAGGYGGGRYAFGQGTKVEIKRTVAAPSVFIFPPSDEQLKSGTASVVCLLNNFYPREAKVQWKVDNALQSGNSQESVTEQDSKDSTYSLSSTLTLSKADYEKHKVYACEVTHQGLSSPVTKSFNRGEC	1200	4	2200	–	–	–	–
GpH7-B3 N325F / GpL16-k0 (antibody, human IgG1, kappa, also called B3 variant N325F) heavy: not shown light: DIVMTQSPLSLPVTPGEPASISCQASESLVHSNRNTYLHWYLQKPGQSPQLLIYKVSNRFSGVPDRFSGSGSGTDFTLKISRVEAEDVGVYYCSQNTHVPPTFGQGTKVEIERTVAAPSVFIFPPSDEQLKSGTASVVCLLNNFYPREAKVQWKVDNALQSGNSQESVTEQDSKDSTYSLSSTLTLSKADYEKHKVYACEVTHQGLSSPVTKSFNRGEC	–	–	–	-1	65	72	–
GpH7-B3 S239P / GpL16-k0 (antibody, human IgG1, kappa, also called B3 variant S239P) heavy: not shown light: DIVMTQSPLSLPVTPGEPASISCQASESLVHSNRNTYLHWYLQKPGQSPQLLIYKVSNRFSGVPDRFSGSGSGTDFTLKISRVEAEDVGVYYCSQNTHVPPTFGQGTKVEIERTVAAPSVFIFPPSDEQLKSGTASVVCLLNNFYPREAKVQWKVDNALQSGNSQESVTEQDSKDSTYSLSSTLTLSKADYEKHKVYACEVTHQGLSSPVTKSFNRGEC	–	–	–	-1	49	61	–
GpH7-B3 P238Y / GpL16-k0 (antibody, human IgG1, kappa, also called B3 variant P238Y) heavy: not shown light: DIVMTQSPLSLPVTPGEPASISCQASESLVHSNRNTYLHWYLQKPGQSPQLLIYKVSNRFSGVPDRFSGSGSGTDFTLKISRVEAEDVGVYYCSQNTHVPPTFGQGTKVEIERTVAAPSVFIFPPSDEQLKSGTASVVCLLNNFYPREAKVQWKVDNALQSGNSQESVTEQDSKDSTYSLSSTLTLSKADYEKHKVYACEVTHQGLSSPVTKSFNRGEC	–	–	–	3	93	114	–
